Results: paper PMC3177201

T1: Prp24 oRRM4 (Saccharomyces cerevisiae, UniProt P49960 292-400)
T1 sequence: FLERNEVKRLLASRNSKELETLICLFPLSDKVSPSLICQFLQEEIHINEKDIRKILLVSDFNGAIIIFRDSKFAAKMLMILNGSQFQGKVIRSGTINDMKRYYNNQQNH

B1: U2 nt 1-51, 5'-FITC (ssRNA)
RNA: ACGAAUCUCUUUGCCUUUUGGCUUAGAUCAAGUGUAGUAUCUGUUCUUUUC

Assays:
[1] = target: T1, Prp24 oRRM4; assay: fluorescence anisotropy
[2] = target: T1, Prp24 oRRM4; assay: fluorescence anisotropy; remark: listed apart in the source

Row | Binder | Kd [1] | binding result [2]
1 | AGAGAUGAUCAGCAGUUCCCCUGCAUAAGGAUGAACCGUU (structured_RNA) [U6 nt 49-88, 5'-Cy5] | 3.1 µM | –
2 | B1 | – | binds
